The results in this text go back to patent publication US20240228986A1, “ENGINEERED CELLS, ENZYMES, AND METHODS FOR PRODUCING CANNABINOIDS” (priority 2021, published 2024).

In one experiment the test system is olivetolic acid. Put plainly: MPT fusions with GPS1.1 vs unfused MPTs, OA feed (Example 8, Table 9). The experiment is classed as cell-based, Yarrowia. The conditions noted are these: 2 mM olivetolic acid, 48 h quench. In outline:
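Yeast strain sCL-SE-0128 carrying MPT or GPS1.1–MPT fusion plasmids, precultured 48 h in YNB/2% glucose/0.5% casamino acids/100 mM MES pH 6.5. Assay medium was the same plus 2 mM olivetolic acid, 30 °C. Cultures were ethanol-quenched at 48 h total growth, and CBGA and FCBGA were measured by HPLC-MS with internal standard; values are replicate means ± SD.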

For another experiment, the system named is divarinic acid. Nature of the experiment: MPT fusions with GPS1.1 vs unfused MPTs, DVA feed (Example 9, Table 11). Type of experiment: cell-based, Yarrowia. The conditions noted are these: 2 mM divarinic acid, 2% glucose, quenched after 48 h; strain sCL-SE-0128. In outline:
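Strain sCL-SE-0128 transformed with MPT or fused-MPT plasmids, several colonies each, precultured 48 h in YNB/glucose/casamino acids/MES pH 6.5. Assay medium carried 2 mM divarinic acid; cultures quenched with ethanol at 48 h total growth and CBGVA and FCBGVA quantified by HPLC-MS against internal standard, averaged over replicates.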

B1: GPS1.1-F11-MPT4: fusion of GPS1.1 and MPT4 via F11 linker, SEQ ID NO: 16 (protein)
chain: MSKAKFESVFPRISEELVQLLRDEGLPQDAVQWFSDSLQYNCVGGKLNRGLSVVDTYQLLTGKKELDDEEYYRLALLGWLIELLQAFWLVSDDIMDESKTRRGQPCWYLKPKVGMIAIWDAFMLESGIYILLKKHFRQEKYYIDLVELFHDISFKTELGQLVDLLTAPEDEVDLNRFSLDKHSFIVRYKTAYYSFYLPVVLAMYVAGITNPKDLQQAMDVLIPLGEYFQVQDDYLDNFGDPEFIGKIGTDIQDNKCSWLVNKALQKATPEQRQILEDNYGVKDKSKELVIKKLYDDMKIEQDYLDYEEEVVGDIKKKIEQVDESRGFKKEVLNAFLAKIYKRQKGGAEAAAKEAAAKAGGSGGGSGGGGSGGSGGGGSGGGGSMSDNSIATKILNFGHTCWKLQRPYVVKGMISIACGLFGRELFNNRHLFSWGLMWKAFFALVPILSFNFFAAIMNQIYDVDIDRINKPDLPLVSGEMSIETAWILSIIVALTGLIVTIKLKSAPLFVFIYIFGIFAGFAYSVPPIRWKQYPFTNFLITISSHVGLAFTSYSATTSALGLPFVWRPAFSFIIAFMTVMGMTIAFAKDISDIEGDAKYGVSTVATKLGARNMTFVVSGVLLLNYLVSISIGIIWPQVFKSNIMILSHAILAFCLIFQTRELALANYASAPSRQFFEFIWLLYYAEYFVYVFI
modifications: GPS1.1-F11-MPT4, geranyl diphosphate synthase, membrane-bound prenyltransferase fusion protein
In the experiment on olivetolic acid (2% glucose, strain sCL-SE-0128), B1 registered a CBGA of 200 ± 3 µM and an FCBGA of 24 ± 1 µM. The CBGA/FCBGA with olivetolic acid (product ratio) was 8.2. In the experiment with divarinic acid, this molecule displayed a CBGVA of 45 ± 2 µM and an FCBGVA of 0 ± 0 µM.
